Results: patent EP1073741B1
“And” between values parts separate entries of the source, which are not always exact repeats. Equal values may be shown once.

Tests used:
[1] = biological target: feline CD28, surface expressed on CD28-pSI transfected COS-7 cells (feline); experiment: cell-cell adhesion assay; calcein-labelled CD80 COS-7 cells on CD28 COS-7 monolayer; microplate fluorimeter
[2] = biological target: feline CD80, surface expressed on feCD80/pSI transfected COS-7 cells (feline); experiment: competitive cell-cell adhesion assay at 5x10^5 cells; huCTLA-4Ig pre-incubated with CD80 COS-7 cells, then added to CD28 COS-7 monolayer

fold fluorescence against wells with mock transfected adherent cells, at 1x10^6 cells [1] [fold]	fold residual fluorescence against wells inhibited with soluble CD80 (close to the mock transfected control) [2]	Substance
5	–	feline CD80, surface expressed on feCD80/pSI transfected COS-7 cells (ligand)
–	2 fold and 3 fold	huCTLA-4Ig fusion protein (from UniProt P16410 38-161) (Fc fusion)
